B1: Krueppel-like factor 11 (Homo sapiens), O14901 (parent)
chain: MHTPDFAGPDDARAVDIMDICESILERKRHDSERSTCSILEQTDMEAVEALVCMSSWGQRSQKGDLLRIRPLTPVSDSGDVTTTVHMDAATPELPKDFHSLSTLCITPPQSPDLVEPSTRTPVSPQVTDSKACTATDVLQSSAVVARALSGGAERGLLGLEPVPSSPCRAKGTSVIRHTGESPAACFPTIQTPDCRLSDSREGEEQLLGHFETLQDTHLTDSLLSTNLVSCQPCLHKSGGLLLTDKGQQAGWPGAVQTCSPKNYENDLPRKTTPLISVSVPAPPVLCQMIPVTGQSSMLPAFLKPPPQLSVGTVRPILAQAAPAPQPVFVGPAVPQGAVMLVLPQGALPPPAPCAANVMAAGNTKLLPLAPAPVFITSSQNCVPQVDFSRRRNYVCSFPGCRKTYFKSSHLKAHLRTHTGEKPFNCSWDGCDKKFARSDELSRHRRTHTGEKKFVCPVCDRRFMRSDHLTKHARRHMTTKKIPGWQAEVGKLNRIASAESPGSPLVSMPASA
partner: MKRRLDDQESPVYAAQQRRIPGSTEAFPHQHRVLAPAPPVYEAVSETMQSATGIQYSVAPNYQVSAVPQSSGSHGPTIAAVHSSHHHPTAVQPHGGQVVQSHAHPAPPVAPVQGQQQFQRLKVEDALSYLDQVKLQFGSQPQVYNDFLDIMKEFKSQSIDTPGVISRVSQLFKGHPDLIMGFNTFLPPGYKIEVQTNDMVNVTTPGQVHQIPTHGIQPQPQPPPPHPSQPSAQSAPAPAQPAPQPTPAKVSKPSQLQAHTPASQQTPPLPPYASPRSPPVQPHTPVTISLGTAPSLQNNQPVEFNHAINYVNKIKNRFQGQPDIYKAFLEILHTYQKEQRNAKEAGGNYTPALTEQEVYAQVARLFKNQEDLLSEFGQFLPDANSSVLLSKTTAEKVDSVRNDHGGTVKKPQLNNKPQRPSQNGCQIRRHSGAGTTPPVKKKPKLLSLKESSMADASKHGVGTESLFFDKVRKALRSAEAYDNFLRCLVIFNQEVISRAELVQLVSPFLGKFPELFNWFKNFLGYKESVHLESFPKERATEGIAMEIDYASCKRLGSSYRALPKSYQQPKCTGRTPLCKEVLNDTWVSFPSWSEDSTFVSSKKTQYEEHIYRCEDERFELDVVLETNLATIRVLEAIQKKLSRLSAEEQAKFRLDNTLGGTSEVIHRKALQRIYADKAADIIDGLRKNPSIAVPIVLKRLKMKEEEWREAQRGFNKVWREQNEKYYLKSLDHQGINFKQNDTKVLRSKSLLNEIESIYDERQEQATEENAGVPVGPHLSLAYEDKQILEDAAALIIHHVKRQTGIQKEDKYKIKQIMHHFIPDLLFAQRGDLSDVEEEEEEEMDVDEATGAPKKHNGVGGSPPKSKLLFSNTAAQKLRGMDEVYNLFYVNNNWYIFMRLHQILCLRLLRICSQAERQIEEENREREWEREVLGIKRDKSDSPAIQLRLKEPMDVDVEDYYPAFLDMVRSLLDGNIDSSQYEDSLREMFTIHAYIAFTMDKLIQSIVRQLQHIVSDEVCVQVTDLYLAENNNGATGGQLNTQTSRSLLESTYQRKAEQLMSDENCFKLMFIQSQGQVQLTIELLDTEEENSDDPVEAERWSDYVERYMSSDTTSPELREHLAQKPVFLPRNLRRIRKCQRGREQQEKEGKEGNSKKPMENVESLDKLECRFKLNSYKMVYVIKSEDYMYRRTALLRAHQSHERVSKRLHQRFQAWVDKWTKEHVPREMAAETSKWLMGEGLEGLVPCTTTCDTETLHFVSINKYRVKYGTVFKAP

Variants of: B1
Details: with Sin3a

Row | effect of a mutation on the interaction | Variant
1 | increasing interaction | MHTPDFAGPDDARAVDIMDICESILERKRHDSERSTCSILEQTDMEAVEALVCMSSWGQRSRKGDLLRIRPLTPVSDSGDVTTTVHMDAATPELPKDFHSLSTLCITPPQSPDLVEPSTRTPVSPQVTDSKACTATDVLQSSAVVARALSGGAERGLLGLEPVPSSPCRAKGTSVIRHTGESPAACFPTIQTPDCRLSDSREGEEQLLGHFETLQDTHLTDSLLSTNLVSCQPCLHKSGGLLLTDKGQQAGWPGAVQTCSPKNYENDLPRKTTPLISVSVPAPPVLCQMIPVTGQSSMLPAFLKPPPQLSVGTVRPILAQAAPAPQPVFVGPAVPQGAVMLVLPQGALPPPAPCAANVMAAGNTKLLPLAPAPVFITSSQNCVPQVDFSRRRNYVCSFPGCRKTYFKSSHLKAHLRTHTGEKPFNCSWDGCDKKFARSDELSRHRRTHTGEKKFVCPVCDRRFMRSDHLTKHARRHMTTKKIPGWQAEVGKLNRIASAESPGSPLVSMPASA [Q62R]

Source: IntAct's records for PubMed 15774581
